The source of these data is the supplement of paper PMC10567573.

First the molecules themselves.
B1: TIA1 (parent)
chain: TYECRCIGEEKEMWNFGEKYARF
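Also: lentivirally expressed fusions sorted by FACS into six bins by GFP to DsRed ratio, PSI derived from sequencing read proportions per bin multiplied by bin number.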

Variants of B1 are the subject of this data set. As to the kind of experiment: protein stability index of a GFP-peptide fusion (GPS, HEK-293T) (PSI 1-6); higher = more stable. As to conditions: c terminus: native.
As for TYECRCIGENKEMWNFGEKYARF [E10N], the protein stability index worked out at 1.83.

Consider TYECRCIGEGKEMWNFGEKYARF [E10G], for which the protein stability index is 1.86.

For TYECRCIGEVKEMWNFGEKYARF [E10V], the protein stability index came out at 1.58.

For the variant TYECRCIGESKEMWNFGEKYARF [E10S], the protein stability index stood at 2.23.

Take TYECRCIGEECEMWNFGEKYARF [K11C]: the protein stability index worked out at 3.31.

Consider TYECRCIGEETEMWNFGEKYARF [K11T], for which the protein stability index worked out at 3.28.

In the case of TYECRCIGEEEEMWNFGEKYARF [K11E], the protein stability index amounted to 2.54.

As for TYECRCIGEEGEMWNFGEKYARF [K11G], the protein stability index came out at 2.62.

Regarding TYECRCIGEEREMWNFGEKYARF [K11R], the protein stability index was 1.57.

For TYECRCIGEEMEMWNFGEKYARF [K11M], the protein stability index turned out to be 1.88.

Regarding TYECRCIGEEHEMWNFGEKYARF [K11H], the protein stability index was 1.78.

Take TYECRCIGEEQEMWNFGEKYARF [K11Q]: the protein stability index was found to be 1.84.

Regarding TYECRCIGEEPEMWNFGEKYARF [K11P], the protein stability index worked out at 2.02.

As to TYECRCIGEEDEMWNFGEKYARF [K11D], the protein stability index was found to be 2.38.

Consider TYECRCIGEESEMWNFGEKYARF [K11S], for which the protein stability index is 1.98.

For TYECRCIGEEAEMWNFGEKYARF [K11A], the protein stability index worked out at 3.42.

Turning to TYECRCIGEEWEMWNFGEKYARF [K11W], the protein stability index is 1.83.

With TYECRCIGEELEMWNFGEKYARF [K11L], the protein stability index was determined as 1.5.

With TYECRCIGEEIEMWNFGEKYARF [K11I], the protein stability index was determined as 1.3.

For TYECRCIGEEYEMWNFGEKYARF [K11Y], the protein stability index worked out at 2.17.

TYECRCIGEEVEMWNFGEKYARF [K11V]: the protein stability index was 2.57.

With TYECRCIGEENEMWNFGEKYARF [K11N], the protein stability index came out at 2.69.

Take TYECRCIGEEFEMWNFGEKYARF [K11F]: the protein stability index was determined as 1.53.

As to TYECRCIGEEKSMWNFGEKYARF [E12S], the protein stability index was found to be 2.21.

Turning to TYECRCIGEEKIMWNFGEKYARF [E12I], the protein stability index came to 1.39.

Consider TYECRCIGEEKWMWNFGEKYARF [E12W], for which the protein stability index was determined as 2.5.

TYECRCIGEEKYMWNFGEKYARF [E12Y]: the protein stability index turned out to be 1.3.

Take TYECRCIGEEKFMWNFGEKYARF [E12F]: the protein stability index was 3.56.

With TYECRCIGEEKKMWNFGEKYARF [E12K], the protein stability index was 1.4.

Consider TYECRCIGEEKMMWNFGEKYARF [E12M], for which the protein stability index came out at 1.88.

Regarding TYECRCIGEEKNMWNFGEKYARF [E12N], the protein stability index turned out to be 2.08.

For the variant TYECRCIGEEKDMWNFGEKYARF [E12D], the protein stability index was determined as 1.91.

With TYECRCIGEEKVMWNFGEKYARF [E12V], the protein stability index is 1.59.

In the case of TYECRCIGEEKHMWNFGEKYARF [E12H], the protein stability index worked out at 2.03.

As for TYECRCIGEEKPMWNFGEKYARF [E12P], the protein stability index is 2.35.

Regarding TYECRCIGEEKRMWNFGEKYARF [E12R], the protein stability index was found to be 1.42.

With TYECRCIGEEKCMWNFGEKYARF [E12C], the protein stability index worked out at 2.08.

For the variant TYECRCIGEEKQMWNFGEKYARF [E12Q], the protein stability index is 2.3.

As to TYECRCIGEEKTMWNFGEKYARF [E12T], the protein stability index came out at 2.19.

Regarding TYECRCIGEEKLMWNFGEKYARF [E12L], the protein stability index came to 2.33.

As to TYECRCIGEEKGMWNFGEKYARF [E12G], the protein stability index amounted to 2.71.

For the variant TYECRFIGEEKEMWNFGEKYARF [C6F], the protein stability index is 3.08.

Take TYECRIIGEEKEMWNFGEKYARF [C6I]: the protein stability index stood at 2.89.

Consider TYECRPIGEEKEMWNFGEKYARF [C6P], for which the protein stability index amounted to 3.72.

TYECRQIGEEKEMWNFGEKYARF [C6Q]: the protein stability index worked out at 3.9.

As for TYECRKIGEEKEMWNFGEKYARF [C6K], the protein stability index came to 3.64.

Take TYECRRIGEEKEMWNFGEKYARF [C6R]: the protein stability index came out at 3.38.

In the case of TYECRMIGEEKEMWNFGEKYARF [C6M], the protein stability index came to 1.84.

Turning to TYECRTIGEEKEMWNFGEKYARF [C6T], the protein stability index came out at 3.1.

Consider TYECRSIGEEKEMWNFGEKYARF [C6S], for which the protein stability index was determined as 3.8.

Turning to TYECRGIGEEKEMWNFGEKYARF [C6G], the protein stability index worked out at 3.94.

In the case of TYECRLIGEEKEMWNFGEKYARF [C6L], the protein stability index was determined as 1.56.

For TYECRNIGEEKEMWNFGEKYARF [C6N], the protein stability index stood at 3.44.

Take TYECRDIGEEKEMWNFGEKYARF [C6D]: the protein stability index came to 4.2.

Regarding TYECRWIGEEKEMWNFGEKYARF [C6W], the protein stability index amounted to 1.53.

Turning to TYECRHIGEEKEMWNFGEKYARF [C6H], the protein stability index was 3.75.

In the case of TYECRYIGEEKEMWNFGEKYARF [C6Y], the protein stability index is 2.14.

Consider TYECREIGEEKEMWNFGEKYARF [C6E], for which the protein stability index amounted to 4.37.

Regarding TYECRCIGEEKEMWNFHEKYARF [G17H], the protein stability index was 2.

On to TYECRCIGEEKEMWNFEEKYARF [G17E], for which the protein stability index is 2.16.

On to TYECRCIGEEKEMWNFDEKYARF [G17D], for which the protein stability index was found to be 3.11.

For TYECRCIGEEKEMWNFFEKYARF [G17F], the protein stability index was determined as 1.81.

TYECRCIGEEKEMWNFCEKYARF [G17C]: the protein stability index was 1.75.

For TYECRCIGEEKEMWNFAEKYARF [G17A], the protein stability index stood at 2.27.

For TYECRCIGWEKEMWNFGEKYARF [E9W], the protein stability index came out at 1.74.

For TYECRCIGTEKEMWNFGEKYARF [E9T], the protein stability index was found to be 1.61.

TYECRCIGLEKEMWNFGEKYARF [E9L]: the protein stability index stood at 3.02.

Regarding TYECRCIGQEKEMWNFGEKYARF [E9Q], the protein stability index was found to be 2.46.

As for TYECRCIGDEKEMWNFGEKYARF [E9D], the protein stability index was 2.28.

As for TYECRCIGMEKEMWNFGEKYARF [E9M], the protein stability index is 1.33.

As for TYECRCIGVEKEMWNFGEKYARF [E9V], the protein stability index worked out at 1.92.

Regarding TYECRCIGNEKEMWNFGEKYARF [E9N], the protein stability index was 2.29.

With TYECRCIGGEKEMWNFGEKYARF [E9G], the protein stability index was 2.09.

Take TYECRCIGFEKEMWNFGEKYARF [E9F]: the protein stability index was 1.81.

As to TYECRCIGREKEMWNFGEKYARF [E9R], the protein stability index was 1.88.

Consider TYECRCIGYEKEMWNFGEKYARF [E9Y], for which the protein stability index was determined as 1.85.

On to TYECRCIGAEKEMWNFGEKYARF [E9A], for which the protein stability index worked out at 1.85.

As for TYECRCIGSEKEMWNFGEKYARF [E9S], the protein stability index turned out to be 1.84.

With TYECRCIGKEKEMWNFGEKYARF [E9K], the protein stability index came to 2.49.

For the variant TYECRCIGPEKEMWNFGEKYARF [E9P], the protein stability index turned out to be 1.82.

In the case of TYECRCIGHEKEMWNFGEKYARF [E9H], the protein stability index worked out at 1.74.

In the case of TYECRCIGIEKEMWNFGEKYARF [E9I], the protein stability index stood at 1.89.

Turning to TYECRCIGCEKEMWNFGEKYARF [E9C], the protein stability index was determined as 2.1.

For TYECRCIREEKEMWNFGEKYARF [G8R], the protein stability index worked out at 3.32.

TYECRCIKEEKEMWNFGEKYARF [G8K]: the protein stability index was found to be 2.18.

Take TYECRCIHEEKEMWNFGEKYARF [G8H]: the protein stability index turned out to be 1.46.

Turning to TYECRCIAEEKEMWNFGEKYARF [G8A], the protein stability index is 2.54.

For TYECRCIFEEKEMWNFGEKYARF [G8F], the protein stability index is 2.01.

In the case of TYECRCICEEKEMWNFGEKYARF [G8C], the protein stability index stood at 1.6.

For the variant TYECRCIIEEKEMWNFGEKYARF [G8I], the protein stability index stood at 2.04.

On to TYECRCIVEEKEMWNFGEKYARF [G8V], for which the protein stability index was found to be 2.65.

For the variant TYECRCIYEEKEMWNFGEKYARF [G8Y], the protein stability index turned out to be 2.37.

TYECRCITEEKEMWNFGEKYARF [G8T]: the protein stability index is 2.47.

With TYECRCIPEEKEMWNFGEKYARF [G8P], the protein stability index came to 2.14.

Take TYECRCINEEKEMWNFGEKYARF [G8N]: the protein stability index amounted to 2.28.

Take TYECRCIDEEKEMWNFGEKYARF [G8D]: the protein stability index amounted to 1.58.

With TYECRCISEEKEMWNFGEKYARF [G8S], the protein stability index came out at 1.98.
